{
  "source": "patent US20110092427A1",
  "about": "“POLYPEPTIDE AND PHARMACEUTICAL COMPOSITION CONTAINING THE POLYPEPTIDE” (National University Corporation Hokkaido Universit y, priority 2008, published 2011)",
  "molecules": {"B1": {"name": "polypeptide F3: polypeptide comprising the amino acid sequence of positions 301 to 418 of PEDF (SEQ ID NO: 4) (protein, listed as Homo sapiens)", "chain": "IDRELKTVQAVLTVPKLKLSYEGEVTKSLQEMKLQSLFDSPDFSKITGKPIKLTQVEHRAGFEWNEDGAGTTPSPGLQPAHLTFPLDYHLNQPFIFVLRDTDTGALLFIGKILDPRGP"}, "B2": {"name": "PEDF protein: commercially available PEDF protein comprising the amino acid sequence of SEQ ID NO: 6 (Sigma) (protein, listed as Homo sapiens)", "chain": "MQALVLLLCIGALLGHSSCQNPASPPEEGSPDPDSTGALVEEEDPFFKVPVNKLAAAVSNFGYDLYRVRSSTSPTTNVLLSPLSVATALSALSLGAEQRTESIIHRALYYDLISSPDIHGTYKELLDTVTAPQKNLKSASRIVFEKKLRIKSSFVAPLEKSYGTRPRVLTGNPRLDLQEINNWVQAQMKGKLARSTKEIPDEISILLLGVAHFKGQWVTKFDSRKTSLEDFYLDEERTVRVPMMSDPKAVLRYGLDSDLSCKIAQLPLTGSMSIIFFLPLKVTQNLTLIEESLTSEFIHDIDRELKTVQAVLTVPKLKLSYEGEVTKSLQEMKLQSLFDSPDFSKITGKPIKLTQVEHRAGFEWNEDGAGTTPSPGLQPAHLTFPLDYHLNQPFIFVLRDTDTGALLFIGKILDPRGP"}},
  "key": {"[1]": {"system": "psoriasis patient-derived skin grafted onto the back of a mouse", "experiment": "External application to psoriasis patient skin grafted onto SCID mice", "format": "in vivo", "details": "for side effects at the applied sites: 70 μL of 1 mM solution in PBS applied to grafted site daily for 14 days; for thickness of the grafted skin (HE-stained sections): psoriasis skin graft, 70 μL of 1 mM solution applied daily for 14 days, FIG. 6, p<0.05", "excerpt": "The hair in the area of approximately 1 cm^2 in the back of 7 to 8 week-old SCID mice (Clea Japan, Inc.) was shaved, and the full-thickness skin was removed while keeping the vessel plexus intact on the fascia overlying back muscles. The skin of affected area of a psoriasis patient that was sampled under the approval of the ethical code was washed with PBS containing 1% penicillin, 1% streptomycine, and 1% amphotericin B, and each piece of the skin thus treated was separately transplanted onto the skin-removed area of the above-described mice.\nSeven days after transplantation, 70 μL of each of solutions prepared by dissolving polypeptides P5-1, P5-2, and P5-3 into phosphate buffered saline (PBS) (each 1 mM) was applied to the grafted sites of three mice daily for 14 days. […] Further, as a control, the same volumes of PBS solution containing a polypeptide having a random sequence and PBS without polypeptide were applied. After 14 days, a part of the grafted skin was collected and embedded in an optimal cutting temperature (OCT) reagent (Sakura finetechnical Co., Ltd.) and then frozen in liquid nitrogen, which was then prepared as 5 μm-thick sections.\nAlso, in accordance with the method of Abe et al. (Am. J. Pathol., 2004, Vol. 164, No. 4, pages 1225-1232), the capillary endothelial cells in the grafted superficial dermis were enumerated by immunoassay employing a rat anti-mouse CD31 antibody using CD31, which was a marker protein of the capillary endothelial cells, as an index."}, "[2]": {"system": "human osteosarcoma cells, MG63", "experiment": "Inhibition of MG63 tumor cell proliferation, 5-bromo-2' deoxyuridine incorporation", "format": "cell-based", "details": "100 nM; FIG. 3 and FIG. 4, p<0.01", "protocol": "(§1) The inhibitory effect of each polypeptide on tumor cell proliferation with respect to human osteosarcoma cells, MG63 (Health Science Research Resources) was measured in accordance with the method described by Takenaka et al. (Life Science, 2005, Vol. 77, pages 3231-3241).\n(§2) Into Dulbecco's modified Eagle's medium (DMEM) supplemented with 10% of fetal bovine serum (FBS) and 100 units/mL penicillin and streptomycin (hereinbelow, simply referred to as a medium), MG63 was suspended. Then, 100 nM commercially available PEDF protein (Sigma) and each of 100 nM polypeptides F1 to F3 prepared in Example 1 “2) Production of polypeptides F1 to F3” were each added per medium, followed by incubation at 37° C. for 24 hours. Subsequently, [^3H] thymidine (Amersham Biosciences Corp.) was added and incubation was carried out for four hours, after which the amount of [^3H] thymidine incorporation by MG63 was measured and the inhibitory effect on tumor cell proliferation was examined.\nAlso, by carrying out similar operations to the above, the inhibitory effect on MG63 tumor cell proliferation was examined by measuring the amount of 5-bromo-2′ deoxyuridine (Roche) incorporation with addition of each of 100 nM polypeptides P1 to P6. […]"}, "[3]": {"system": "human osteosarcoma cells, MG63", "experiment": "Inhibition of MG63 tumor cell proliferation, [3H] thymidine incorporation", "format": "cell-based", "details": "100 nM, incubation 24 hours, then [3H] thymidine four hours; FIG. 2, p<0.01", "protocol": "as §1, §2"}, "[4]": {"system": "normal individual-derived skin grafted onto the back of mice", "experiment": "Subcutaneous injection at normal individual skin grafted onto SCID mice", "format": "in vivo", "details": "skin of a normal individual, 30 μg subcutaneous injection, three times/week for three weeks", "excerpt": "(§3) Further, in a similar manner to the above, the hair in the area of approximately 1 cm^2 in the back of 7 to 8 week old SCID mice (Clea Japan, Inc.) was shaved, and the full-thickness skin was removed while keeping the vessel plexus intact on the fascia overlying back muscles. The skin of affected area of a psoriasis patient and the skin of a normal individual that were sampled under the approval of the ethical code were each washed with PBS containing 1% penicillin and 1% amphotericin B, and each of the skin thus treated was separately transplanted onto the skin-removed area of the above-described mice.\n(§4) Seven days after transplantation, commercially available PEDF protein (30 μg) was given at the grafted site by subcutaneous injection. The injection was administered for three weeks at three times/week. As a control, a mouse given subcutaneous injection of only PBS was used. The day after the last subcutaneous injection, a part of the grafted skin was collected and stained with HE in a similar manner to the above, and the thickness of the grafted skin was measured. The results obtained from the skin of affected area of a psoriasis patient are shown in FIG. 8 (photograph) and FIG. 9, and the results obtained from the skin of a normal individual are shown in FIG. 10 (photograph) and FIG. 11.\n(§5) Also, by carrying out similar operations to the above, the capillary endothelial cells were enumerated using CD31 as an index. The results obtained from the skin of affected area of a psoriasis patient are shown in FIG. 12 and the results obtained from the skin of a normal individual are shown in FIG. 13.\n(§6) Further, the frequency of Ki-67 expressing positive cells, where Ki-67 is a proliferation marker of the basal cell layer, was measured in accordance with the method of Gilhar et al. (Am. J. Pathol., 2006, Vol. 168, No. 1, pages 170 to 175). The results obtained from the skin of affected area of a psoriasis patient are shown in FIG. 14 and the results obtained from the skin of a normal individual are shown in FIG. 15."}, "[5]": {"system": "psoriasis patient-derived skin grafted onto the back of mice", "experiment": "Subcutaneous injection at psoriasis patient skin grafted onto SCID mice", "format": "in vivo", "details": "skin of affected area of a psoriasis patient, 30 μg subcutaneous injection, three times/week for three weeks", "excerpt": "as §3, §4, §5, §6"}},
  "note": "Peptide text beside a SMILES is read from it.",
  "data": [
    {"molecule": "polypeptide P5-3: polypeptide of SEQ ID NO: 3, identical to positions 395 to 400 of PEDF (FIFVLRD; listed as Homo sapiens)", "values": [
      {"measurement": "side effects at the applied sites", "setting": "[1]", "value": "no side effects and the like were apparent"},
      {"measurement": "thickness of the grafted skin (HE-stained sections)", "setting": "[1]", "value": "significantly reduced"}
    ]},
    {"molecule": "polypeptide P5: polypeptide of SEQ ID NO: 5, identical to the amino acid sequence of positions 381 to 400 of PEDF (HLTFPLDYHLNQPFIFVLRD; listed as Homo sapiens)", "values": [
      {"measurement": "inhibitory effect on MG63 tumor cell proliferation (amount of 5-bromo-2' deoxyuridine incorporation)", "setting": "[2]", "value": "an inhibitory effect on tumor cell proliferation was confirmed"}
    ]},
    {"molecule": "polypeptide P5-2: polypeptide of SEQ ID NO: 2, identical to positions 388 to 394 of PEDF (YHLNQP; listed as Homo sapiens)", "values": [
      {"measurement": "side effects at the applied sites", "setting": "[1]", "value": "no side effects and the like were apparent"},
      {"measurement": "thickness of the grafted skin (HE-stained sections)", "setting": "[1]", "value": "significantly reduced"}
    ]},
    {"molecule": "CC(C)C[C@H](NC(=O)[C@@H](N)Cc1c[nH]cn1)C(=O)N[C@H](C(=O)N[C@@H](Cc1ccccc1)C(=O)N1CCC[C@H]1C(=O)N[C@@H](CC(C)C)C(=O)N[C@@H](CC(=O)O)C(=O)O)[C@@H](C)O", "note": "[polypeptide P5-1] (H-HLTFPLD-OH)", "values": [
      {"measurement": "side effects at the applied sites", "setting": "[1]", "value": "no side effects and the like were apparent"}
    ]},
    {"molecule": "B1", "values": [
      {"measurement": "inhibitory effect on tumor cell proliferation (amount of [3H] thymidine incorporation by MG63)", "setting": "[3]", "value": "a strong inhibitory effect on tumor cell proliferation was confirmed"}
    ]},
    {"molecule": "B2", "values": [
      {"measurement": "thickness of the grafted skin", "setting": "[4]; FIG. 11, p<0.05", "value": "significantly reduced"},
      {"measurement": "number of capillary endothelial cells (CD31-positive)", "setting": "[4]; FIG. 13, p<0.05", "value": "significantly reduced"},
      {"measurement": "frequency of Ki-67 expressing positive cells in the basal cell layer", "setting": "[4]; FIG. 15, p<0.05", "value": "significantly reduced"},
      {"measurement": "thickness of the grafted skin", "setting": "[5]; FIG. 9, p<0.05", "value": "significantly reduced"},
      {"measurement": "number of capillary endothelial cells (CD31-positive)", "setting": "[5]; FIG. 12, p<0.05", "value": "significantly reduced"},
      {"measurement": "frequency of Ki-67 expressing positive cells in the basal cell layer", "setting": "[5]; FIG. 14, p<0.05", "value": "significantly reduced"}
    ]}
  ]
}
